What all share (test): peptide ELISA, OD 655 nm
Test [1] has as its target T1, D607A peptide (HER2 603-622 with D607A) (human).
T1 peptide: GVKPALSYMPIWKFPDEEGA

The target of test [2] is T2, E620A peptide (HER2 603-622 with E620A) (human).
T2 peptide: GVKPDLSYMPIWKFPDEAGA

For test [3], the target named is T3, Y610A peptide (HER2 603-622 with Y610A) (human).
T3 peptide: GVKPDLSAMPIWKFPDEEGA

The target in test [4] is T4, G603A peptide (HER2 603-622 with G603A) (human).
T4 peptide: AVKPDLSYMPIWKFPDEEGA

For test [5], the target named is T5, I613A peptide (HER2 603-622 with I613A) (human).
T5 construct: also called 1613A
T5 peptide: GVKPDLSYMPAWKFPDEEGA

Test [6] concerns the target T6, P612A peptide (HER2 603-622 with P612A) (human).
T6 peptide: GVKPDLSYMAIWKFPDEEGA

The target in test [7] is T7, V604A peptide (HER2 603-622 with V604A) (human).
T7 peptide: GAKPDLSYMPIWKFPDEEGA

Test [8] has as its target T8, E619A peptide (HER2 603-622 with E619A) (human).
T8 peptide: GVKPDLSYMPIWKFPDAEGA

Test [9] addresses T9, M611A peptide (HER2 603-622 with M611A) (human).
T9 peptide: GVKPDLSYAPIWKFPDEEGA

For test [10], the target named is T10, P617A peptide (HER2 603-622 with P617A) (human).
T10 peptide: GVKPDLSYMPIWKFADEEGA

The target of test [11] is T11, F616A peptide (HER2 603-622 with F616A) (human).
T11 peptide: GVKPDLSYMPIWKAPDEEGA

For test [12], the target named is T12, G621A peptide (HER2 603-622 with G621A) (human).
T12 peptide: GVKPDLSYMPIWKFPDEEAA

For test [13], the target named is T13, L608A peptide (HER2 603-622 with L608A) (human).
T13 peptide: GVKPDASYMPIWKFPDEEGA

Test [14] has as its target T14, D618A peptide (HER2 603-622 with D618A) (human).
T14 peptide: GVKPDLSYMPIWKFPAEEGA

Test [15] deals with T15, K605A peptide (HER2 603-622 with K605A) (human).
T15 peptide: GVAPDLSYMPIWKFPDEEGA

Test [16] addresses T16, HER2 peptide p603-622 (amino acids 603 to 622 of human HER2) (human).
T16 construct: Synthetic peptide; also called wild-type HER2 peptide
T16 peptide: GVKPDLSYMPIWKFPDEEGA

The target in test [17] is T17, P606A peptide (HER2 603-622 with P606A) (human).
T17 peptide: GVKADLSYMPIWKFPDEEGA

Test [18] has as its target T18, W614A peptide (HER2 603-622 with W614A) (human).
T18 peptide: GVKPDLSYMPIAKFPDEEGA

The target of test [19] is T19, S609A peptide (HER2 603-622 with S609A) (human).
T19 peptide: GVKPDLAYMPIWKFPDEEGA

In test [20] the target is T20, HER2_604-622C peptide (NH2-VKPDLSYMPIWKFPDEEGAC-COOH) (human).
T20 construct: KLH was added for immunisation, the peptide itself was coated in the screening ELISA
T20 peptide: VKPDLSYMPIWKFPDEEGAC

Test [21] addresses T21, K615A peptide (HER2 603-622 with K615A) (human).
T21 peptide: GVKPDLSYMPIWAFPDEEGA

Test [22] addresses T11, F616A peptide (HER2 603-622 with F616A).
For test [23], the target named is T18, W614A peptide (HER2 603-622 with W614A).

This note sets out measurements from patent US20240002531A1 (ONO PHARMACEUTICAL, published 2024).

Read-outs that look alike come from different tables or passages of the source.

B1: H2Mab-298 antibody (antibody, mouse IgG1, kappa, V domains shown)
VH: DVKLVESGGGLVKPGGSLKLSCAASGFTFSRYSMSWVRQTPEKKLEWVAIISTGGSYMFYPDSAKGRFTISRDDAKNTLYLQMSSLKSEDTAMYYCTREAGDYWGQGTTLTVSS
VL: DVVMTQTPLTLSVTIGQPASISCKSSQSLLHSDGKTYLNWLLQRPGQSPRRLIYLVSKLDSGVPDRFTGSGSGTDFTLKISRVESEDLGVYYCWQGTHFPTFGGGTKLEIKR
As for B1, the binding result in test [1], in test [2], in [3], in [4], in [5] and in test [6] was “binds” in each case. Moreover, the binding result in test [7], in test [8], in test [9], in test [10], in test [11] and in test [12] was “binds” each time. Moreover, the binding result in test [13], in [14], in [15], in test [16], in test [17] and in test [18] was “binds” in each case. Also, the binding result in [19], in test [20] and in test [21] was “binds” each time.

B2: H2Mab-294 antibody (antibody, mouse IgG1, kappa, V domains shown)
VH: EVQLVESGGGLVQPGGSLKLSCAASGFTFSSYGMSWVRQTPDKRLELVATINSNGGGTYYPDSVKGRFTISRDNAKNTLYLQMSSLKSEDTAIYYCASPGSWFPYWGQGTLVTVSA
VL: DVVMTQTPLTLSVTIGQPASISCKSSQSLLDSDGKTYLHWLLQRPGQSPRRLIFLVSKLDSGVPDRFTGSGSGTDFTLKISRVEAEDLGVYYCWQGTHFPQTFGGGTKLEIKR
As to B2, the binding result in test [1], in test [2], in [3], in [4], in test [5] and in [6] was “binds” each time. Besides, the binding result in test [7], in test [8], in test [9], in test [10], in [11] and in test [12] was “binds” in each case. In addition, the binding result is reported as “binds” in test [13]; “binds” in [14]; “binds” in [15]; “binds” in [16]; “binds” in test [17]; “no binding (tested: 10 ug/ml)” in [18]. The binding result in test [19], in test [20] and in test [21] was “binds” throughout.

B3: H2Mab-293 antibody (antibody, mouse IgG3, V domains shown)
VH: EVQLVESGGGLVQPGGSLKLSCAASGFTFSNYGIFWVRQTPDKRLELVATVKSNGGSTYYPDSVKGRFTISRDNAKKTLYLQMSSLKSEDTAMYYCAREGGDYWGQGTSVTVSS
VL: DIVMTQSHKFMSTSVGDRVSITCKASQDVGTAVAWYQQKPGQSPKLLIYWTSTRHIGVPDRFTGSGSGTDFTLTIRNVQSEDLANYFCQQYSKNPLTFGAGTKLELKR
In the case of B3, the binding result in test [1], in test [2], in test [3], in test [4], in test [5] and in test [6] was “binds” throughout. The binding result in test [7], in test [8], in test [9], in [10], in test [11] and in test [12] was “binds” in each case. Besides, the binding result in test [13], in test [14], in test [15], in [16], in [17] and in test [18] was “binds” each time. The binding result in test [19], in test [20] and in [21] was “binds” in each case.

B4: H2Mab-296 antibody (antibody, mouse IgG1, kappa, V domains shown)
VH: QVTLKESGPGILQPSQTLSLTCSFSGFSLSTSGMGVGWIRQPSGKGLEWLAHIWWDDDKRYNPALKSRLTISKDTSSNQVFLKIANVDTSDTATYYCSRIEGQRGFAYWGQGTLVTVSA
VL: DIVMSQSPSSLAVSVGEMITMTCKSSQSLLYSRNQKNYLAWYQQKPGQSPKLLIYWASTRESGVPDRFTGSGSGTDFTLTISSVKAEDLAVYYCQQYYSQPYTFGGGTKLEIKR
For B4, the binding result in test [1], in test [2], in [3], in test [4], in test [5] and in test [6] was “binds” each time. The binding result in test [7] is “binds”; in test [8], “binds”; in [9] it was “binds”; in [10] it was “binds”; in [11], “no binding (tested: 10 ug/ml)”; in test [12], “binds”. Besides, the binding result in test [13], in test [14], in test [15], in test [16], in test [17] and in test [18] was “binds” in each case. Further, the binding result in [19] and in test [20] was “binds” each time.

B5: H2Mab-286 antibody (antibody, mouse IgG1, kappa, V domains shown)
VH: DVQLQESGPGLVKPSQSLSLTCTVTGYSITSDYGWNWIRQFPGNKLEWMGYIRYSGITSYNPSLKSRISITRDTSKNQFFLQLNSVTTEDTATYYCTREVLSWGQGTTLTVSS
VL: DVVMTQTPLSLPVSLGDQASISCRSSQSLVHSNGNTYLHWFLQKPGQSPKLLIYKVSNRFSGVPARFSGSGSGTDFTLKISRVEAEDLGVYFCSQSTHVPPTFGGGTKLEIKR
As for B5, the binding result in test [22] and in [23] was “no binding (tested: 10 ug/ml)” in each case.
